The text below walks through data of patent US20020193570A1 (EMD LEXIGEN RESEARCH CENTER, published 2002).

One experiment addresses T1, Fc-p40 fusion protein (human, UniProt P29460 23-328).
T1 construct: mature; Expected to dimerize through the Fc; not shown: human IgG1 Fc (vector pdC-Fc-X)
T1 sequence (looked up): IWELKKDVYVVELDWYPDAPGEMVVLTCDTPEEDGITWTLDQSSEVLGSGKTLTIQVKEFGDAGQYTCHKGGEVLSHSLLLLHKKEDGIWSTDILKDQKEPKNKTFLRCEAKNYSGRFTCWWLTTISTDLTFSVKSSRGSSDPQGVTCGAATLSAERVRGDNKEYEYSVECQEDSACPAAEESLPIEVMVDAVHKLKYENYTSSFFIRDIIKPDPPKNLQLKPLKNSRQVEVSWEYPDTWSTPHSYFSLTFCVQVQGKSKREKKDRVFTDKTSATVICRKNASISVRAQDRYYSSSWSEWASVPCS
As to the kind of experiment: co-expression in 293 cells, protein A Sepharose precipitation of 35S-labelled supernatant, SDS-PAGE. The method, then:
(§1) After 16 hr, the medium containing the precipitate was removed and replaced with fresh medium. After 3 days, the supernatant was removed and analyzed for production of transfected gene expression by ELISA, biological determination of IL-12 activity, or immunoprecipitation and analysis on SDS gels of radioactively labeled proteins. For labeling, medium without methionine was used to replace the growth medium on the second day of culture and ³⁵S-methionine (100 μCi/ml) is added. After an additional 16 hr incubation, the media was harvested, clarified by centrifugation (5 min at 13,000 rpm in a table top microcentrifuge) and incubated with protein A Sepharose beads (10 μl of bead volume per ml of culture supernatant). After 1 hr at room temperature, the beads were washed by repeated centrifugation and resuspension in PBS buffer containing 1% NP-40. The final pellet was resuspended in SDS-containing gel buffer and boiled for 2 min. After removing the beads by centrifugation, the supernatant was divided into two aliquots. Reducing agent (5% 2-mercaptoethanol) was added to one sample and both are boiled for 5 min prior to loading on an SDS polyacrylamide gel. After electrophoresis the gel was exposed to X-ray film (autoradiography).
(§2) An example of an analysis of the co-expression of various fusion proteins and individually expressed proteins, under reducing conditions, is shown in FIG. 2. […] The p40 subunit, on the other hand, was readily secreted when fused to Fc (lane 2). The p35 subunit was secreted when it could pair with the p40 subunit, either as an Fc-p35 fusion pairing with an Fc-p40 fusion protein (lane 3), the Fc-p35 pairing with free p40 (lane 4), or free p35 pairing with the Fc-p40 fusion protein (lane 5). In all cases of expression of a free subunit, together with a fusion protein, the free subunit assembles with the other subunit and forms a covalent, disulfide bond. […]

Experiment [1] concerns the target T2, free p40 subunit of human IL-12 (human, UniProt P29460 23-328).
T2 construct: mature
T2 sequence (looked up): T1 sequence (looked up)
The description is as above. The method, then: as §1, §2

B1: free p35 subunit of human IL-12 (ligand, UniProt P29459 23-219, looked up)
chain: RNLPVATPDPGMFPCLHHSQNLLRAVSNMLQKARQTLEFYPCTSEEIDHEDITKDKTSTVEACLPLELTKNESCLNSRETSFITNGSCLASRKTSFMMALCLSSIYEDLKMYQVEFKTMNAKLLMDPKRQIFLDQNMLAVIDELMQALNFNSETVPQKSSLEEPDFYKTKIKLCILLHAFRIRAVTIDRVMSYLNAS
notes: mature
As to B1, the binding result with Fc-p40 fusion protein was “binds”.

B2: Fc-p35 fusion protein (Fc fusion, human, UniProt P29459 23-219, looked up)
chain: B1 chain
notes: mature; Expected to dimerize through the Fc; Not secreted unless paired with p40; not shown: human IgG1 Fc (vector pdC-Fc-X)
Turning to B2, the binding result (in experiment [1]; in the experiment with Fc-p40 fusion protein) was “binds” each time.
